# Laboratory results published in patent US6262023A, “WD-40 derived peptides and uses thereof” (The Board of Trustees of the Leland Stanford Junior …, priority 1995, dated 2001).
# Experiments:
# [1] = molecular target: βPKC (Rattus norvegicus, UniProt P68403); experiment: Sensitivity of βPKC to Arg-C endopeptidase (nicking); type: biochemical; set-up: All the solutions contained 5 nM rat brain PKC in peptide overlay buffer; from tissue; host or cells: rat brain; details: 2.5 μg/ml PS and 50 μM CaCl2; peptide 10 μM; Arg-C 5 units/ml
# Description: Upon activation of PKC, a pseudosubstrate autoinhibitory sequence at the N-terminus of the molecule dissociates from the catalytic site and becomes sensitive to endopeptidase Arg-C (Orr, et al.). In the absence of PKC activators, exposure of the 80 kDa βPKC to endopeptidase Arg-C has no effect on the enzyme (see FIG. 7, lane 1). In the presence of the PKC activators PS, DG and calcium, however, exposure of βPKC to Arg-C results in a "nicking" of the PKC (i.e. limited proteolysis generating a 78 kDa fragment and several small fragments (see FIG. 7, lane 2)). Continued exposure to Arg-C results in the disappearance of βPKC (Orr, et al.). The present experiment tests whether peptides derived from the WD-40 region of RACK1 alter the sensitivity of βPKC to endopeptidase Arg-C.
# The methods used to assay Arg-C sensitivity are a modification of methods described by Orr, et al. Rat brain PKC (~5 nM) was incubated at room temperature in 500 μl of 20 mM Tris-HCl buffer (pH 7.5) alone or with Arg-C (5 units/ml) in the presence or absence of the indicated peptides (final concentration 10 μM or as indicated), PS, DG, and calcium (as indicated). 50 μl aliquots were removed into 20 μl of sample buffer during the reaction as indicated (samples in all the lanes were incubated for 30 minutes, except lanes 5, and 6, which were incubated for 5 and 15 minutes, respectively). The samples were boiled for 10 minutes at 80° C. and loaded onto 8% SDS-PAGE. βPKC was detected by Western blot analysis using anti-βPKC antibodies as described in Examples 6 and 8.
# PKC was incubated for the indicated time alone (lane 1) or in the presence of Arg-C (lanes 2-9), with DG (0.8 μg/ml), PS (50 μg/ml) and CaCl2 (1 mM; lane 2), with PS (50 μg/ml) and CaCl2 (1 mM; lane 3), with PS (2.5 μg/ml) and CaCl2 (50 μM; lane 4); with PS (2.5 μg/ml), CaCl2 (50 μM) and with either peptide rVI (SEQ ID NO:7; 10 μM; lanes 5-7), control peptide (SEQ ID NO: 9; lane 8) or with peptide I (SEQ ID) NO:1; lane 9).
# [2] = tested on: PKC binding to RACK1; experiment: Overlay / overlay-extraction assay: inhibition of PKC binding to recombinant RACK1 by peptides; set-up: species or system rat; details: 10 μM peptide preincubated with PKC isozyme mixture; compared with binding in the absence of added peptide; n=3
# Description: Purified recombinant RACK1 protein (100-250 μg per lane, produced as detailed in Example 2) was subjected to SDS/PAGE and blotted onto nitrocellulose membranes (Ausubel). The nitrocellulose membranes were cut into strips, which were incubated for 0.5 hr in overlay buffer (Example 1) in the presence or absence of a mixture of PKC isozymes (α, β, γ, ε and .zeta., ~10 nM each final concentration) and PKC activators (60 μg/ml phosphatidylserine (PS), 2 μg/ml diacylglycerol (DG), and 1 mM CaCl2). Unbound material was removed by five washes, 5-min each, in overlay wash buffer. Where indicated, PKC activators were present during the incubation of PKC with the nitrocellulose strips. The conditions for each sample and corresponding results are presented in part D below.
# The variation in the overlay protocol consisted of incubating the putative binding peptides with a mixture of PKC isozymes for 15 minutes at room temperature before the mixture was used to contact the nitrocellulose strips containing immobilized RACK1.
# Nitrocellulose strips containing immobilized RACK1, that had been contacted with a solution containing a mixture of PKC isozymes, were washed and the area corresponding to the 36 kDa (RACK1-containing) band was cut out. The pieces (containing PKC/RACK1 complexes) were incubated with sample buffer for 10 minutes at 80° C. The sample buffer and the nitrocellulose pieces were then placed in wells in the PAGE gel and subjected to SDS-PAGE to elute the bound proteins. The gel was blotted onto nitrocellulose and a Western blot analysis was carried out using the mixture of antibodies (specific for PKC α, β, γ, δ, ε and .zeta. isozymes) described in Example 1 part B. Bound antibodies were detected by ^125 I-protein A.
# Peptides derived from or homologous to WD-40 repeats of RACK1 were tested for their ability to inhibit PKC binding to recombinant RACK1. Binding of PKC to RACK1 was carried out using a variation of the overlay procedure described in Example 3 part B. In the experimental samples, peptides were incubated with a solution containing a mixture of rat brain PKC isozymes (~10 nM each) for 15 minutes at room temperature.
# Following completion of the modified overlay protocol, the samples were subjected to the overlay-extraction protocol detailed in part B, above.
# Sequence of βPKC (P68403 whole entry, the tested form may be a part): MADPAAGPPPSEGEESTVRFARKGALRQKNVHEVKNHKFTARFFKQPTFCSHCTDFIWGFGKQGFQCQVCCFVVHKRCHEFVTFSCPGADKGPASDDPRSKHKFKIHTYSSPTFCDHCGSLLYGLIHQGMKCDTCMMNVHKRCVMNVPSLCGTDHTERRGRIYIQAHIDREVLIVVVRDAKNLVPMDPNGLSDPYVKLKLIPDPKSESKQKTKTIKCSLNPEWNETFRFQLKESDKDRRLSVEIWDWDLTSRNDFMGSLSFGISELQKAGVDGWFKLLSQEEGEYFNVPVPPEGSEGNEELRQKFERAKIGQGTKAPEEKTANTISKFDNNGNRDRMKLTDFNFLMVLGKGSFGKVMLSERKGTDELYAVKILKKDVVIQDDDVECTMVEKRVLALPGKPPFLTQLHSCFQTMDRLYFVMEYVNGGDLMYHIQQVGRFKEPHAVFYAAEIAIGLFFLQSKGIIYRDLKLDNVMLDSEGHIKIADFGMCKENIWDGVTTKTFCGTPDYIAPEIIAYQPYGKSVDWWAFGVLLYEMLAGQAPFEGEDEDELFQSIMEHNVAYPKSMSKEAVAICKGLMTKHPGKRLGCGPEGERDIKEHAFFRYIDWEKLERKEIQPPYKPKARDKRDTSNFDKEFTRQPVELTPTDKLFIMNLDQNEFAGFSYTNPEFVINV
substance,measurement,setting,value
peptide I: 15-residue peptide homologous to a sequence in the sixth WD-40 repeat of RACK1; PKC antagonist (KGDYEKILVALCGGN),nicking of βPKC by Arg-C (78 kDa fragment) at low concentrations of activators,[1],nicking of βPKC did not occur
same,inhibition of PKC binding to recombinant RACK1,[2],81±6%
